Patent publication US20190367615A1 (BEIJING HANMI PHARM, published 2019)

Tests used:
[1] = target: Recombinant monkey PD-1 (Sino Biological Inc.) (monkey); experiment: species specificity ELISA, coated recombinant monkey PD-1 (1 ug/mL), anti-human IgG-HRP, OD450nm
Description: Recombinant human PD-1, monkey PD-1, rat PD-1 and mouse PD-1 (all purchased from Sino Biological Inc.), were coated on a 96-well high-absorbing ELISA plate with a carbonate buffer solution with pH 9.6, the coating concentration was 1 μg/mL, the coating amount was 100 μL per well, and the coating was carried out at 4° C. overnight. The plate was washed five times with PBST and blocked with 300 μL/well of PBST containing 1% BSA, and then incubated at 25° C. for 1 hour. The plate was washed five times with PBST. […] The plate was washed five times with PBST. Then, horseradish peroxidase-labeled anti-human IgG antibody (Chemicon, Catalog Number AP309P) 1:2000 diluted in PBST containing 1% BSA was added, 100 μL per well, incubated at 25° C. for 1 hour. The plate was washed five times with PBST. 100 μL/well of colorimetric substrate TMB was added and incubated at room temperature for 10 minutes. Color development was terminated by adding 100 μL/well of 1 M H₂SO₄: The absorbance at 450 nm was read on a microplate reader.

[2] = target: T1, Recombinant human PD-1 (Sino Biological Inc., Catalog Number 10377-H08H) (human, UniProt Q15116 25-167); experiment: SPR (Biacore X100), antibody captured on anti-human IgG CM5 chip, PD-1 as analyte
T1 construct: Bought protein; also called antigen PD-1
T1 sequence (Q15116 25-167 limits assumed): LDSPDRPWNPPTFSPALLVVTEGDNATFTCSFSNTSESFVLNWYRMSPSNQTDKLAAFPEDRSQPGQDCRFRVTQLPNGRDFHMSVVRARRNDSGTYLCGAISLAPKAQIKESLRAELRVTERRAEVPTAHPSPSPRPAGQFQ
Description: The instrument utilizes an optical surface plasmon resonance technique to detect association and dissociation between a molecule coupled on a sensor chip and an analyte. CM5 chips (GE Healthcare, BR-1000-12) were used. […] In the association phase, the antigen PD-1 was diluted to multiple concentrations with a running buffer, and injected at a rate of 30 μL/min for 180 seconds. In the dissociation phase, the duration of the dissociation was 1200 seconds. Glycine solution (GE Healthcare, BR-1003-54) was used to regenerate for 30 seconds at a speed of 10 μL/min. […] Association rate constant and dissociation rate constant were analyzed and calculated by Biacore X100 evaluation software.

[3] = target: T2, Recombinant human CD86 (Sino Biological Inc.) (human, UniProt P42081 24-247, limits assumed); experiment: binding specificity ELISA, coated recombinant human CD86, anti-human IgG-HRP
T2 sequence (looked up): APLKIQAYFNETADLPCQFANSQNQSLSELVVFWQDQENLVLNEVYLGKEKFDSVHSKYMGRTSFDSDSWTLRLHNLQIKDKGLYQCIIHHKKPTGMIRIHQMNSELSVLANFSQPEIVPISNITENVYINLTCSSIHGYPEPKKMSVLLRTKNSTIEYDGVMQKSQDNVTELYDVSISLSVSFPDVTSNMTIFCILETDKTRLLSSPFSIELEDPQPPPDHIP
Description: The plate was washed five times with PBST and blocked with 300 μL/well of PBST containing 1% BSA and incubated at 25° C. for 1 hour. The plate was washed five times with PBST. […] The plate was washed five times with PBST. Then, horseradish peroxidase-labeled anti-human IgG antibody (Chemicon, Catalog Number AP309P) 1:2000 diluted in PBST containing 1% BSA was added, 100 μL was added to each well, incubated at 25° C. for 1 hour. The plate was washed five times with PBST. 100 μL/well of colorimetric substrate TMB was added and incubated at room temperature for 10 minutes. Color development was terminated by adding 100 μL/well of 1 M H₂SO₄. The absorbance at 450 nm was read on a microplate reader.

B1: anti-human PD-1 chimeric monoclonal antibody (antibody, human IgG4 S228P, kappa, V domains shown)
VH: EVQLQESGGGLVKPGGSLKLSCAASGFTFSSYGMSWVRQTPEKRLEWVASISGGGRYTYYPDSMKGRFTISRDNAKNNLHLQMSSLRSEDTALYYCVYEYFYTMDYWGQGTSVTVSS
VL: DIVLTQSPATLSVTPGDSVSLSCRANQSISNNLHWYQQRSHESPRLLIRFASQSISGIPSRFSGSGSGTDFTLSINSVETEDFGMYFCQQSDNWPLTFGAGTKLEIKR
notes: expressed in 293F cells; also called Anti-human PD-1 Chimeric Antibody; chimeric anti-human PD-1 monoclonal antibody
- EC50 [1]: 0.1 nM
- Kd [2]: 1.37 nM
- koff [2]: 0.000295 s⁻¹
- kon [2]: 215000 M⁻¹ s⁻¹
- binding result [3]: no binding
